Residue numbers refer to the chain shown, from its start. In names and notes the source's numbering stands.

The source of these data is patent US20260226190A1 (CITY OF HOPE, published 2026).

For experiment [1], the target named is T1, Human prostate stem cell antigen (PSCA) expressed on RM9-hPSCA murine prostate cancer cells (human, UniProt O43653 12-83).
T1 construct: RM9 cells transduced with human PSCA; also called RM9-hPSCA cells
T1 sequence: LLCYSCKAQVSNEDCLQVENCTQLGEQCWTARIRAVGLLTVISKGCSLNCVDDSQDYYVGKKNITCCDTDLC
As to the kind of experiment: saturation binding on PSCA-expressing cells. The source says: (§1) The resulting saturation binding curves were fitted (one-site specific binding, GraphPad Prism) to determine Kd and Bₘₐₓ from four independent experiments. […] (FIG. 6)
Two novel anti-PSCA scFv-Fc variants (A2SM, A2aG) were designed, produced, and purified (FIG. 1). SDS-PAGE and SEC analysis confirmed purity and dimeric self-assembly. […] A2SM was successfully radiolabeled with ⁸⁹Zr (efficiency: >90%, purity >99%, n=2) resulting in a specific activity of ~0.17 MBq/μg (FIG. 2). […] Therefore, the novel A2SM could deliver a higher cytotoxic dose to the tumor while the liver remains the dose-limiting organ.

Experiment [2] deals with T2, Recombinant human PSCA-mouse Fc fusion protein (human; mouse, UniProt O43653 12-83, limits assumed).
T2 construct: Those marks are not visible here; also called hPSCA-mFc; human PSCA-murine Fc fusion protein; not shown: mouse Fc
T2 sequence: T1 sequence
The experiment is described as follows: ELISA saturation binding on immobilized hPSCA-mFc, one site-specific binding fit (EC50=Kd), n=3. As to the method:
(§2) Specificity and affinity of antigen binding was further evaluated by performing saturation binding on immobilized antigen in ELISA. Recombinant human PSCA-mouse Fc fusion protein (hPSCA-mFc, produced in house) was immobilized (1 μg/mL, 100 µL/well in PBS overnight at 4° C.). Serial dilutions of anti-PSCA scFvFc's ([…]) were incubated for 1 h at RT and after washing bound antibody fragments were detected using goat anti-human IgG-Fc-AP antibody (1:10,000) and pNPP substrate (alkaline phosphatase yellow, liquid substrate, Sigma-Aldrich P7998). The enzymatic reaction was stopped using 50 μL 2M NaOH and absorbance was red at 405 nm in an SpectraMax M2 microplane reader. Specific binding was fitted using the “one site-specific binding” equation to determine the Kd (ligand concentration that binds half the antigen sites at equilibrium) and Bₘₐₓ (maximum number of binding sites).
A general note: ELISA stands for enzyme-linked immunosorbent assay.

Experiment [3] has as its target T1, Human prostate stem cell antigen (PSCA) …. As to the kind of experiment: flow cytometry saturation binding on RM9-hPSCA cells, one-site specific binding fit, four independent experiments.
Description: as §1
Background: A flow cytometer gives signals particle by particle.

Experiment [4] addresses T3, BSA (UniProt P02769 25-607).
T3 construct: Control coating in the ELISA; also called bovine serum albumin (control coating)
The experiment is described as follows: ELISA, BSA-coated control wells. As for the experimental part: as §2
The purified proteins were tested for specific binding to recombinant antigen by ELISA on immobilized human PSCA-mouse Fc protein. Dose-dependent binding was detected for wells coated with hPSCA-mFc and no non-specific binding was detected in BSA coated control wells.

In experiment [5] the target is T2, Recombinant human PSCA-mouse Fc fusion …. The experiment is described as follows: ELISA saturation binding on hPSCA-mFc (value given for the 'previous' variant).

T3 sequence (P02769 25-607 limits assumed): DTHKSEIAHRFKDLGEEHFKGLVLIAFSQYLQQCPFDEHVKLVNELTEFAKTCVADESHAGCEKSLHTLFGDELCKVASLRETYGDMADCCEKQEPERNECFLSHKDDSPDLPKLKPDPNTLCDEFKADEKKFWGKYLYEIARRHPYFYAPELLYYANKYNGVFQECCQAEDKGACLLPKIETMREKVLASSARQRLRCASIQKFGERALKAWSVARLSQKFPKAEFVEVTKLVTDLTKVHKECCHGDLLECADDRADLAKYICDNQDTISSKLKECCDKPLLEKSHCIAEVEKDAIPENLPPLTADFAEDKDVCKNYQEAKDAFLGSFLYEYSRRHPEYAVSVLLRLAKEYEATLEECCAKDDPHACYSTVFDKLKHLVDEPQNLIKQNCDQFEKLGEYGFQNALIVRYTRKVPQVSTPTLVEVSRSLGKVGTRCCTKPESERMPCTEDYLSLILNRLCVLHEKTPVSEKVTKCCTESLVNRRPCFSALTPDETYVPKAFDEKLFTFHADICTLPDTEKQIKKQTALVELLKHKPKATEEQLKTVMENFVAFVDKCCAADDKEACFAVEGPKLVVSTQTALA

B1: A2scFv-Fc2 SM (anti-PSCA A2 scFv-Fc2 single mutant, H310A, with K322A) (Fc fusion)
chain: EVQLVESGGGLVQPGGSLRLSCAASGFNIKDYYIHWVRQAPGKGLEWVAWIDPEYGDSEFVPKFQGRATMSADTSKNTAYLQMNSLRAEDTAVYYCKTGGFWGRGTLVTVSSGGGGSGGGGSGGSAQDIQLTQSPSSLSASVGDRVTITCSASSSVRFIHWYQQKPGKAPKRLIYDTSKLASGVPSRFSGSGSGTDFTLTISSLQPEDFATYYCQQWGSSPFTFGQGTKVEIKVECPPCPAPPVAGPSVFLFPPKPKDTLMISRTPEVTCVVVDVSHEDPEVQFNWYVDGMEVHNAKTKPREEQFNSTFRVVSVLTVVAQDWLNGKEYKCAVSNKGLPAPIEKTISKTKGQPREPQVYTLPPSREEMTKNQVSLTCLVKGFYPSDIAVEWESNGQPENNYKTTPPMLDSDGSFFLYSKLTVDKSRWQQGNVFSCSVMHEALHNHYTQKSLSLSPGK
notes: Homodimeric scFv-Fc of about 110 kDa, glycosylated, made in FreeStyle 293-F cells; I could not check whether that entry includes a leader peptide from the pSecTag2A vector; also called A2SM; A2scFv-Fc2-SM w/K322A
With B1, the Kd is 3.3 nM in experiment [1], 0.59 nM in experiment [2] and 3.74 nM in experiment [3]. In experiment [4], the binding result is on record as “no binding”.

B2: A2scFv-Fc2 DM (anti-PSCA A2 scFv-Fc2 double mutant, H310A/H435Q) (Fc fusion)
chain: B1 chain with A331K, H444Q
Take B2: the Kd in experiment [5] was 0.8 nM.

B3: A2scFv-Fc2 (anti-PSCA A2 scFv-Fc2 without FcRn-site mutations) (Fc fusion)
chain: B1 chain with A319H, A331K
notes: also called A2Fc2
In the case of B3, in experiment [5], the dissociation constant Kd was determined as 0.5 nM.

B4: A2scFv-Fc2 DMaG (anti-PSCA A2 scFv-Fc2 double mutant aglycosylated, H310A/H435Q, N297Q, with K322A) (Fc fusion)
chain: B1 chain with N306Q, H444Q
notes: I could not check whether that entry includes a leader peptide; also called A2DMaG; A2scFv-Fc2-DMaG w/K322A
Regarding B4, the Kd in experiment [1] was 3.1 nM; in experiment [2], 0.8 nM; in experiment [3], 3.28 nM. Also, in experiment [4], the binding result is recorded as “no binding”.

In general, Kd refers to the concentration at which binding is half-saturated.
